Data from article PMC4571865, “Structural Basis for Antigen Recognition by Transglutaminase 2-specific Autoantibodies in Celiac Disease*” (The Journal of Biological Chemistry, 2015).

B1: anti-TG2 antibody 679-14-E06 (human IgG1) (antibody, V domains shown)
VH: EVQLVQSGAEVKKPGESLKISCKGSGYSFTSYWIGWVRQMPGKGLEWMGIIYPGDSDTRYSPSFQGQVTISADKSISTAYLQWSSLKASDTAMYYCARPHYYDSLDAFDIWGQGTMVTVSS
VL: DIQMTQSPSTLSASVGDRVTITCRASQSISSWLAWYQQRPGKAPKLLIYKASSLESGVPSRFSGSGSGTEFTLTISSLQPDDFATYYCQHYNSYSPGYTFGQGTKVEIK
notes: constant region of human IgG1; IgG1; derived from a single gut IgA plasma cell of a celiac disease patient; Residues 142-149, 198-207, 225-231 of the heavy chain and 172-175, 228-234 of the light chain lack electron density in PDB 4ZD3 (IMGT numbering); source: HEK 293F cells, co-transfected heavy and light chain plasmids; purified from culture supernatant (protein G column)
B2: Fab fragment of antibody 679-14-E06 (Fab, V domains shown)
VH: B1 VH
VL: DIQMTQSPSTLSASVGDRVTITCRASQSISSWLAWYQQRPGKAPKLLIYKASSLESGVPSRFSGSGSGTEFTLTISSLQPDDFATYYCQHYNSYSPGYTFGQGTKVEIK
notes: Electron density is missing for residues 142-149, 198-207, 225-231 of the heavy chain and 172-175, 228-234 of the light chain in PDB 4ZD3 (IMGT numbering); also called the Fab fragment; source: HEK 293F cells, co-transfected heavy and light chain plasmids; purified from culture supernatant (protein L column)

How the values were obtained:
Conditions in all cases: both partners purified
[1] = target: T1, transglutaminase 2 mutant R19S (Homo sapiens (assumed; human TG2 …, UniProt P21980, R19S); assay: SPR; BIAcore 3000; anti-TG2 antibodies amine-coupled to CM5 chips (700-2300 RU); WT or mutant TG2 injected in HBS-EP (0.01 M HEPES, 0.15 M NaCl, 2 mM EDTA, 0.05% P20, pH 7.4), 40 ul/min, 25 °C; relative binding at 500 nM, kinetics from serial dilutions (15.6/156-500/5000 nM); 1:1 Langmuir model; reference cell with a non-TG2 reactive antibody
T1 construct: transglutaminase 2 (TG2); also called TG2 R19S

[2] = target: T2, transglutaminase 2, wild type (UniProt P21980); assay: as above
T2 construct: transglutaminase 2 (TG2); For the complex, native PAGE and SAXS the protein was incubated with 1 mM GDP (closed conformation); SASBDB SASDA28, SASDA38 and SASDA48 hold the SAXS data of TG2-GDP, the Fab and the complex; also called TG2; WT TG2

[3] = target: T3, transglutaminase 2 mutant K30A (Homo sapiens (assumed; human TG2 …, UniProt P21980, K30A); assay: as above
T3 construct: transglutaminase 2 (TG2); also called TG2 K30A

[4] = target: T4, transglutaminase 2 mutant R116A (Homo sapiens (assumed; human TG2 …, UniProt P21980, R116A); assay: as above
T4 construct: transglutaminase 2 (TG2); also called TG2 R116A

[5] = target: T2, transglutaminase 2, wild type; assay: SAXS; complex of TG2-GDP and 679-14-E06 Fab in solution, data at 9 mg/ml; molecular weight estimates and ab initio models; beamline P12, PETRA III

T1 sequence (P21980 whole entry R19S): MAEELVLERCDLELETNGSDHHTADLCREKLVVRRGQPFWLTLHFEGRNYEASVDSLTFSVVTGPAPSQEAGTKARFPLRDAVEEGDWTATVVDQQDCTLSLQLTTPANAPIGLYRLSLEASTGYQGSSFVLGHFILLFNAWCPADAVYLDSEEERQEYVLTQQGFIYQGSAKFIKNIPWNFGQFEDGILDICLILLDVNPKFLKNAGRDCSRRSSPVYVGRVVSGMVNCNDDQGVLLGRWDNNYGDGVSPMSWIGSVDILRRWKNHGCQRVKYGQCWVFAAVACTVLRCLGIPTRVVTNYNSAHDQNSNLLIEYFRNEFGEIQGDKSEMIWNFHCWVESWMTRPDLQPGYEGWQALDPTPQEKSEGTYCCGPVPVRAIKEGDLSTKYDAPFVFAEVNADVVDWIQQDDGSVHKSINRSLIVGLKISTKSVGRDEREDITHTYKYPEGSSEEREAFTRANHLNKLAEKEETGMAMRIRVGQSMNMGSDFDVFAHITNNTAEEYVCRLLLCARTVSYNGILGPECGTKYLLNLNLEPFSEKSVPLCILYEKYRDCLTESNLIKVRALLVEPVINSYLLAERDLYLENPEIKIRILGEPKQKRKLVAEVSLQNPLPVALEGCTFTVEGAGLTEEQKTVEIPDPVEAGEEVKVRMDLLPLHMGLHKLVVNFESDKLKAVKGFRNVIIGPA
T2 sequence (P21980 whole entry): as the sequence (P21980 whole entry R19S) above, with S19R counted along it
T4 sequence (P21980 whole entry R116A): as the sequence (P21980 whole entry R19S) above, with S19R, R116A counted along it
T3 sequence (P21980 whole entry K30A): as the sequence (P21980 whole entry R19S) above, with S19R, K30A counted along it

Row | Binder | Kd [1] | koff [1] | kon [1] | Kd [2] | koff [2] | kon [2] | Kd [3] | koff [3] | kon [3] | Kd [4] | koff [4] | kon [4] | stoichiometry N [5]
1 | B1 | 147 nM | 0.00525 s⁻¹ | 35800 M⁻¹ s⁻¹ | 55.5 nM | 0.00474 s⁻¹ | 85300 M⁻¹ s⁻¹ | 49.9 nM | 0.00353 s⁻¹ | 70800 M⁻¹ s⁻¹ | 240 nM | 0.00736 s⁻¹ | 30600 M⁻¹ s⁻¹ | 
2 | B2 |  |  |  |  |  |  |  |  |  |  |  |  | 1
